In patent US20050239072, “Device and methods for concentrating prion protein isoforms” (published 2005):

Columns and labels:
[1] = target: T1, human recombinant prion protein hrPrP (PrP23-231) (Homo sapiens, UniProt P04156 P04156:23-231); assay: FP filter; settings: tags: E. coli GST fusion, GST removed by thrombin cleavage; label: 32P internal
[2] = target: T1, human recombinant prion protein hrPrP …; assay: FP filter; no tRNA; 250 mM NaCl, 2 mM MgCl2, 37 C; settings: tags: E. coli GST fusion, GST removed by thrombin cleavage
[3] = target: human recombinant PrP90-231 (lacks N-terminal 23-90) (Homo sapiens, UniProt P04156 P04156:90-231)
[4] = target: T1, human recombinant prion protein hrPrP …; assay: pulldown; settings: tags: E. coli GST fusion, GST removed by thrombin cleavage; label: none; hybridized to oligo-dT-cellulose

B1: MNV:AP1 (ssRNA)
RNA: GGGUUCAUAGCCUAUUCGGCUUCGCGCAUGGGAAUUUGAGGGACGAUGGGGAAGUGGGAGCGCGUUUUAAAGGACCUUUUUCCCUCGCGUAGCUAGCUACGCGAGGUGACCCCCCGAAGGGGGGUGCCCC
Kd [1]: 3.8 nM

B2: RQT157 (ssRNA)
RNA: GGGGUUUCGAACCGGAAUUUGAGGGAUGCCUAGGCAUCCCCCGUGCGUCCCUUUACGAGGGAUUGUCGACUCUAGAGGAUCCGGUACCUGAGGGAUGCCUAGGCAUCCCCGCGCGCCGGUUUCGGACCUCCAGUGCGUGUUACCGCACUGUCGACCC
Kd ([2]; label: 32P internal): 56 nM

B3: RQ11+12 (ssRNA)
RNA: GGGGUUUCCAACCGGAAUUUGAGGGAUGCCUAGGCAUCCCCCGUGCGUCCCUUUACGAGGGAUUGUCGACUCUAGUCGACGUCUGGGCGAAAAAUGUACGAGAGGACCUUUUCGGUACAGACGGUACCUGAGGGAUGCCUAGGCAUCCCCGCGCGCCGGUUUCGGACCUCCAGUGCGUGUUACCGCACUGUCGACCC
Kd ([2]; label: 32P internal (alpha-32P CTP)): 26 nM
binding result [3]: no binding

B4: RQAAA (RQ11+12 with 3' poly-A15) (ssRNA)
RNA: GGGGUUUCCAACCGGAAUUUGAGGGAUGCCUAGGCAUCCCCCGUGCGUCCCUUUACGAGGGAUUGUCGACUCUAGUCGACGUCUGGGCGAAAAAUGUACGAGAGGACCUUUUCGGUACAGACGGUACCUGAGGGAUGCCUAGGCAUCCCCGCGCGCCGGUUUCGGACCUCCAGUGCGUGUUACCGCACUGUCGACCCAAAAAAAAAAAAAAA
binding result [4]: binds
